No end group written: not given here. *: point of attachment. FITC = O=C1OC2(c3ccc(O)cc3Oc3cc(O)ccc32)c2ccc(NC(=S)*)cc21; Ahx = NCCCCCC(=O)O
B1: N-terminal fluorescein isothiocyanate (FITC) labeled PL peptide (peptide)
peptide: {FITC-Ahx}-SAVLQKKITDYFHPKK
notes: Synthesised on CLEAR Amide resin, so the C-terminus is probably an amide (surmised); also called FITC-PL peptide; FITC-PL; source: synthetic peptide (solid phase, HPLC purified)
B2: Akt 12-mer reverse PIP Box peptide mimic (peptide)
peptide: HRFFAGIVWQHV
notes: 12-mer modeled after the reverse PIP Box of Akt, found by a screen of the human genome; Synthesised on CLEAR Amide resin, so the C-terminus is probably an amide (surmised); also called Akt peptide; reverse-PIP Box Akt peptide; source: synthetic peptide (solid phase, HPLC purified)
B3: DNA polymerase δ (p66 subunit) 12-mer PIP Box peptide (peptide)
peptide: NRQVSITGFFQR
notes: PIP Box stretch of the p66 subunit of DNA polymerase δ (POLD3); Made on CLEAR Amide resin, so the C-terminus is probably an amide; source: synthetic peptide (solid phase, HPLC purified)
B4: Abl 12-mer PIP Box peptide mimic (peptide)
peptide: PGQRSISLRYEG
notes: Synthesised on CLEAR Amide resin, so the C-terminus is probably an amide (surmised); also called Abl peptide; source: synthetic peptide (solid phase, HPLC purified)
B5: DNA polymerase δ (p66 subunit) 12-mer PIP Box peptide mimic (peptide)
peptide: NRQVSITGFFQR
notes: 12-mer modeled after the PIP Box of the p66 subunit of DNA polymerase δ; Synthesised on CLEAR Amide resin, so the C-terminus is probably an amide (surmised); also called p66 peptide; source: synthetic peptide (solid phase, HPLC purified)
B6: PI3K (p85α subunit) 12-mer PIP Box peptide (peptide)
peptide: TLQYLLKHFFKL
notes: PIP Box stretch of the PI3-kinase p85α regulatory subunit (PIK3R1), found by screening the human genome; Made on CLEAR Amide resin, so the C-terminus is probably an amide; also called PI3-kinase (p85α regulatory domain); source: synthetic peptide (solid phase, HPLC purified)
B7: unlabeled POGO-ligase (PL) peptide (peptide)
peptide: SAVLQKKITDYFHPKK
notes: Synthesised on CLEAR Amide resin, so the C-terminus is probably an amide (surmised); also called control PL peptide; source: synthetic peptide (solid phase, HPLC purified)
B8: Abl 12-mer PIP Box peptide (peptide)
peptide: PGQRSISLRYEG
notes: PIP Box stretch of Abl (ABL1), lying in the SH2 domain; Made on CLEAR Amide resin, so the C-terminus is probably an amide; source: synthetic peptide (solid phase, HPLC purified)
B9: PI3K (p85α subunit) 12-mer PIP Box peptide mimic (peptide)
peptide: TLQYLLKHFFKL
notes: 12-mer modeled after the PIP Box of PI3-kinase p85α, found by a screen of the human genome; Synthesised on CLEAR Amide resin, so the C-terminus is probably an amide (surmised); also called p85α peptide; PI3-kinase (p85α regulatory domain); source: synthetic peptide (solid phase, HPLC purified)
B10: p21 12-mer PIP Box peptide mimic (peptide)
peptide: RRQTSMTDFYHS
notes: 12-mer modeled after the C-terminal PIP Box of the tumor suppressor p21; Synthesised on CLEAR Amide resin, so the C-terminus is probably an amide (surmised); also called p21 peptide; p21 12-amino acid peptide; source: synthetic peptide (solid phase, HPLC purified)
B11: Akt 12-mer reverse PIP Box peptide (peptide)
peptide: HRFFAGIVWQHV
notes: reverse PIP Box stretch of Akt, found by screening the human genome; Made on CLEAR Amide resin, so the C-terminus is probably an amide; source: synthetic peptide (solid phase, HPLC purified)

Experiments:
recombinant PCNA protein [1] = molecular target: T1, recombinant PCNA protein (Homo sapiens, UniProt P12004); test: Fluorescence polarization competition assay (displacement of FITC-PL peptide from PCNA); assay type: binding; design: (His)6 (N); TEV protease recognition site (N); made in house; host or cells: E. coli BL21(DE3)
T1 sequence (P12004 whole entry): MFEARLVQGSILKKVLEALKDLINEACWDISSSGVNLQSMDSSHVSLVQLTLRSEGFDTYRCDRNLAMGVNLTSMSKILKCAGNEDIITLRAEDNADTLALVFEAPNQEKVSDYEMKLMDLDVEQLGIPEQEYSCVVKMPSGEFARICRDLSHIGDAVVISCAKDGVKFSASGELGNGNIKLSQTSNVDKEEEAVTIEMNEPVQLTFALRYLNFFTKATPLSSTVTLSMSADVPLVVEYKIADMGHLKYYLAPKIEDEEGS
Description: (3) and represented as mean ± standard error of mean (Y). Fraction of the FITC-PL peptide bound (Y) was plotted as a function of the logarithm of the 12 amino acid peptide antagonist concentration (X), and IC50 values were determined by fitting the data to Eq. […] Anisotropy values were also analyzed using complete and incomplete binding models without non-specific effects as outlined in Roehrl et al..

[2] = Aggregation observed in the fluorescence polarization competition assay; assay type: physicochemical; conditions: FP competition assay, binding buffer; result in words
Description: Competition assays were analyzed by fluorescence polarization on a DTX880 Multimode plate reader (Beckman Coulter) using an excitation of 485 nm and an emission filter at 535 nm at 30°C. Anisotropy values (N = 4) were statistically evaluated using Grubbs' test for outliers at a significance level of 0.05 and converted to fraction of FITC-PL peptide bound (fb) using Eq. (3) and represented as mean ± standard error of mean (Y).

recombinant PCNA protein [3] = molecular target: T1, recombinant PCNA protein; test: ITC; conditions: cited from earlier work
[4] = molecular target: T2, recombinant PCNA protein (N-terminal (His)6-PCNA) (human, UniProt P12004 1-261); test: fluorescence polarisation; direct binding: increasing recombinant PCNA (monomer concentration) added to 50 nM FITC-PL peptide; 25 mM HEPES pH 7.4, 10% glycerol, 0.01% Triton X-100; 30 min at room temperature, read at 30°C; fit with a Hill slope; conditions: both partners purified
T2 construct: PCNA, human; amplified by PCR from a template plasmid (Genecoepia) into pEV-L8, which has an N-terminal (His)6-tag and a TEV protease recognition site; No TEV cleavage is described; also called human PCNA; source: E. coli BL21(DE3), purified (Ni-NTA)
T2 sequence (P12004 whole entry): as above

[5] = molecular target: T2, recombinant PCNA protein (N-terminal …); test: fluorescence polarisation; competition: increasing unlabeled peptide with 50 nM FITC-PL peptide and 1 µM PCNA (monomer concentration); 25 mM HEPES pH 7.4, 10% glycerol, 0.01% Triton X-100; 30 min at room temperature, read at 30°C; Ki from a modified Cheng-Prusoff equation; conditions: both partners purified
recombinant PCNA protein [6] = molecular target: T3, recombinant PCNA protein (human, UniProt P12004 1-261); test: fluorescence polarisation; competition: increasing unlabeled 12-mer peptide against 50 nM N-terminal FITC-PL peptide and 1 µM PCNA (monomer concentration); 25 mM HEPES pH 7.4, 10% glycerol, 0.01% Triton X-100; 30 min at room temperature, read at 30°C; fraction of FITC-PL bound fitted to the complete (Eq. 6) or incomplete (Eq. 7, four-state) competition model of Roehrl et al.; estimated dissociation constants; conditions: both partners purified
T3 construct: PCNA (proliferating cell nuclear antigen), human; The vector has a TEV protease site after the (His)6 tag, and no cleavage is described; also called (His)6-PCNA; source: E. coli BL21(DE3), purified (Ni-NTA, dialysis)
T3 sequence (P12004 whole entry): as above

[7] = molecular target: T2, recombinant PCNA protein (N-terminal …); test: fluorescence polarisation; competition: increasing unlabeled peptide with 50 nM FITC-PL peptide and 1 µM PCNA (monomer concentration); 25 mM HEPES pH 7.4, 10% glycerol, 0.01% Triton X-100; 30 min at room temperature, read at 30°C; Ki from a modified Cheng-Prusoff equation; conditions: both partners purified; remark: listed apart in the source

Molecule	IC50 [5] [µM]	Ki [5] [µM]	fb at [peptide]max (fraction of FITC-PL bound) [5]	also measured
RRQTSMTDFYHS-NH2 [p21]				Kd (recombinant PCNA protein [1]; estimated dissociation constant of competitive ligand-PCNA interaction, Roehrl et al. binding models, Eq. (6)/(7), read-out: Kd2): 615 ± 251 nM; Kd (recombinant PCNA protein [1]; incomplete competition model (four state), Roehrl et al., Eq. (7), read-out: Kd3): 3100 ± 200 nM
NRQVSITGFFQR [DNA polymerase δ (p66 subunit), 12-amino acid PIP Box peptide modeled after the p66 subunit of DNA polymerase δ]				Hill Slope (recombinant PCNA protein [1]; Hill slope n of the fit to Eq. (4), 50 nM FITC-PL, 1 µM PCNA (monomer)): −1.2±0.2
GVQRNHETAFQG [Mcl-1]				aggregation of the tracer at higher concentrations [2]: not observed; binding to recombinant PCNA in the competition assay (recombinant PCNA protein [1]; result in words): did not bind
p21 12-mer PIP box peptide PIP box (from UniProt P38936)				Kd (recombinant PCNA protein [3]): 640 nM
B1				Kd [4]: 760 ± 19 nM
B2	8.5 ± 4.2	3.4	0.06	
B3				Kd (recombinant PCNA protein [6]): 20.8 ± 4.4 µM
B4	71.3 ± 12.1	30.4	0.1	
B5	67.9 ± 15.8	28.9	0	
B6				Kd (recombinant PCNA protein [6]): 1.6 ± 0.6 µM
B7	0.145 ± 0.013	0.136	0	IC50 [7]: 144 ± 13 nM
B8				Kd (recombinant PCNA protein [6]): 52.9 ± 14.7 µM
B9	7.5 ± 0.3	2.9	0	
B10	1.8 ± 0.5	0.477	0.25	
B11				Kd (recombinant PCNA protein [6]): 2 ± 0.4 µM

— article PMC4103810, “Flexibility of PCNA-Protein Interface Accommodates Differential Binding Partners” (PLoS ONE, 2014)
